Results on 5 molecules are retold here after article PMC8446450, “Autosomal Recessive Cutis Laxa 1C Mutations Disrupt the Structure and Interactions of Latent TGFβ Binding Protein-4” (Frontiers in Genetics, 2021).

The target of assay [1] is Latent TGFβ binding protein-4 (LTBP4S) C-terminal region, ARCL1C mutant C1286S (human). As to the kind of experiment: SPR; ProteOn, LTBP4 C-terminal constructs amine-coupled on GLC chip, fibrillin-1 PF3 injected 100-3.1 nM, 10 mM HEPES, 150 mM NaCl, pH 7.4, 0.005% Tween-20, 25°C; steady state (equilibrium) analysis. In general terms: Surface plasmon resonance follows binding to a sensor surface in real time, without labels.

In the next assay the target is T1, Fibulin-4, full length (UniProt O95967 24-443, biotin (biotinylated ligand on streptavidin biosensors, position not stated)).
T1 construct: full-length fibulin-4; source: expressed and purified as previously described (Choudhury et al., 2009)
T1 sequence (looked up): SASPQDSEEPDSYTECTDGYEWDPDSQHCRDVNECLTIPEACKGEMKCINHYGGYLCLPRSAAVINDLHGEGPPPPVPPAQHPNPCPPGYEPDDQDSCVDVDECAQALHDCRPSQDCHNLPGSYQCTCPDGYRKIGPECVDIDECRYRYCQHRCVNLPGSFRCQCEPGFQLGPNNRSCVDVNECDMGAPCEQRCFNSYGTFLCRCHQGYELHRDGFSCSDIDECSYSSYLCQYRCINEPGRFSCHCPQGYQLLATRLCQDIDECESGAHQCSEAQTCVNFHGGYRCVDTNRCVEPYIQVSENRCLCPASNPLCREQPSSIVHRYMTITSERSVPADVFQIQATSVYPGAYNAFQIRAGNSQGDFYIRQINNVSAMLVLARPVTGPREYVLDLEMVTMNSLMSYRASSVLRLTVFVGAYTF
As to the kind of experiment: BLI; OctetRED96, immobilised full-length fibulin-4, NWT or C274G 1000-62.5 nM, 10 mM HEPES, 150 mM NaCl, pH 7.4, 0.005% Tween-20, 25°C; steady state analysis. (In general: In BLI a coated tip is dipped into the sample, and binding shifts an interference pattern.)

The target in assay [2] is T2, Tropoelastin (SHELdelta26A) (biotin where immobilised on streptavidin biosensors (position not given)).
T2 chain: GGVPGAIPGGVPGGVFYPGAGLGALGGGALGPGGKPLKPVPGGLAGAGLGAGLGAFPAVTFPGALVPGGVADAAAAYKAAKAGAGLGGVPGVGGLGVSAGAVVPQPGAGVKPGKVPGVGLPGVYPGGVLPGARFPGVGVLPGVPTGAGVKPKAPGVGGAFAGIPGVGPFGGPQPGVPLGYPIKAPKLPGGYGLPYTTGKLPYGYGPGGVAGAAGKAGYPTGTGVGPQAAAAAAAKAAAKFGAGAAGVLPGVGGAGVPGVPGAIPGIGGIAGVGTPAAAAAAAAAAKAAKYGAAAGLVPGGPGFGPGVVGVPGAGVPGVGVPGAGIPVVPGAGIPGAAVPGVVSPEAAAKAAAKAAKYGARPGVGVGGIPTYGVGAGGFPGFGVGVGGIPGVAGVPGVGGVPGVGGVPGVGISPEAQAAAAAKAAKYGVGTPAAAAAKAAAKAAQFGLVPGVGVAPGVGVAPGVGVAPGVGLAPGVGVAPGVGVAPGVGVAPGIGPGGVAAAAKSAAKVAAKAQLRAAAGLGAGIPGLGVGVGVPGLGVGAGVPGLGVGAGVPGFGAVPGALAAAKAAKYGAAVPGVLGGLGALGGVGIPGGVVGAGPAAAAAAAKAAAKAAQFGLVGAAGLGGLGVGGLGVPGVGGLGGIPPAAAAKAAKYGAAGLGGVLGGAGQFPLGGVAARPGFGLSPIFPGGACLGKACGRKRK
As to the kind of experiment: BLI.

The target in assay [3] is Tropoelastin (SHELdelta26A). As to the kind of experiment: BLI; OctetRED96, biotinylated tropoelastin on streptavidin biosensors, LTBP4 C-terminal constructs 375-23.4 nM, 10 mM HEPES, 150 mM NaCl, pH 7.4, 0.005% Tween-20, 25°C; steady state analysis.
Another assay addresses T3, Fibrillin-1 PF3 fragment (UniProt P35555 45-722).
T3 construct: signal peptide in the construct; fibrillin-1 PF3 fragment, residues 1-722 (Rock et al., 2004); also called N-terminal region of fibrillin-1; source: purified
As to the kind of experiment: SPR; ProteOn, LTBP4 C-terminal constructs amine-coupled on GLC chip, fibrillin-1 PF3 injected 100-3.1 nM, 10 mM HEPES, 150 mM NaCl, pH 7.4, 0.005% Tween-20, 25°C; steady state (equilibrium) analysis. The conditions noted are these: both partners purified.

Where two headings read alike, the source gives them in different places.

T3 sequence (P35555 45-722): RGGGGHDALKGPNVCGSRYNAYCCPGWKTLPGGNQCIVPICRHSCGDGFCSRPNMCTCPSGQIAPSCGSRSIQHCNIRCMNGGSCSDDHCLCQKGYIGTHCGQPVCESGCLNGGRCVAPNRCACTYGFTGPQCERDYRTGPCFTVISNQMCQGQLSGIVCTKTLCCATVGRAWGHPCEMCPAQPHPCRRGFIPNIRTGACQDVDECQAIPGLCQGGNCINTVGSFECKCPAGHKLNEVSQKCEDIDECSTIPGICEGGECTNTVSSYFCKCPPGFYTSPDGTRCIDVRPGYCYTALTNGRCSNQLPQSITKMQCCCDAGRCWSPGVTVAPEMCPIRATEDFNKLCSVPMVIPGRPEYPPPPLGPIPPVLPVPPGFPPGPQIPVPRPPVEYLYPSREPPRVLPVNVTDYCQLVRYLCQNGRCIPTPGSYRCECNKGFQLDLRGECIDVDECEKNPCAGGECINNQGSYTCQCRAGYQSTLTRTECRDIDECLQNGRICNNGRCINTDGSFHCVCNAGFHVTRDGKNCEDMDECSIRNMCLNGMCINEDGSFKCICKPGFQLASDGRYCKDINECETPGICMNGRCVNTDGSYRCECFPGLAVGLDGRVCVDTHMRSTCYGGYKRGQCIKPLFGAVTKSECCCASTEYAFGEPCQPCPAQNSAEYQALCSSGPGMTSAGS

In general, Kd refers to the free concentration of one partner at which half of the binding sites on the other are occupied at equilibrium, for simple one-to-one binding. “Fibrillin-1 PF3 fragment (from UniProt P35555 45-722) (domain or fragment)” displayed a Kd in assay [1] of 12.2 nM.
Molecule “Latent TGFβ binding protein-4 (LTBP4S) N-terminal region, ARCL1C mutant C274G (domain or fragment)” yielded a Kd in the assay with Fibulin-4, full length of 177 nM.

B1: Latent TGFβ binding protein-4 (LTBP4S) C-terminal region, wild type (domain or fragment, human, UniProt Q8N2S1-2 1114-1557, looked up)
chain: RECYFDTAAPDACDNILARNVTWQECCCTVGEGWGSGCRIQQCPGTETAEYQSLCPHGRGYLAPSGDLSLRRDVDECQLFRDQVCKSGVCVNTAPGYSCYCSNGYYYHTQRLECIDNDECADEEPACEGGRCVNTVGSYHCTCEPPLVLDGSQRRCVSNESQSLDDNLGVCWQEVGADLVCSHPRLDRQATYTECCCLYGEAWGMDCALCPAQDSDDFEALCNVLRPPAYSPPRPGGFGLPYEYGPDLGPPYQGLPYGPELYPPPALPYDPYPPPPGPFARREAPYGAPRFDMPDFEDDGGPYGESEAPAPPGPGTRWPYRSRDTRRSFPEPEEPPEGGSYAGSLAEPYEELEAEECGILDGCTNGRCVRVPEGFTCRCFDGYRLDMTRMACVDINECDEAEAASPLCVNARCLNTDGSFRCICRPGFAPTHQPHHCAPARPRA
notes: numbers count on: LTBP4S; N-glycosylated (PNGase-F shift); also called CWT; C WT
For the molecule B1, the Kd in assay [2] was determined as 6.4 nM; in assay [3], 57 nM; in the assay with Fibrillin-1 PF3 fragment it was 15.8 nM.

B2: Latent TGFβ binding protein-4 (LTBP4S) C-terminal region, ARCL1C mutant C1286S (domain or fragment)
chain: RECYFDTAAPDACDNILARNVTWQECCCTVGEGWGSGCRIQQCPGTETAEYQSLCPHGRGYLAPSGDLSLRRDVDECQLFRDQVCKSGVCVNTAPGYSCYCSNGYYYHTQRLECIDNDECADEEPACEGGRCVNTVGSYHCTSEPPLVLDGSQRRCVSNESQSLDDNLGVCWQEVGADLVCSHPRLDRQATYTECCCLYGEAWGMDCALCPAQDSDDFEALCNVLRPPAYSPPRPGGFGLPYEYGPDLGPPYQGLPYGPELYPPPALPYDPYPPPPGPFARREAPYGAPRFDMPDFEDDGGPYGESEAPAPPGPGTRWPYRSRDTRRSFPEPEEPPEGGSYAGSLAEPYEELEAEECGILDGCTNGRCVRVPEGFTCRCFDGYRLDMTRMACVDINECDEAEAASPLCVNARCLNTDGSFRCICRPGFAPTHQPHHCAPARPRA
Consider B2, for which the equilibrium dissociation constant (Kd) turned out to be 65 nM in assay [2] and 151 nM in assay [3].

B3: Latent TGFβ binding protein-4 (LTBP4S) N-terminal region, wild type (domain or fragment, human, UniProt Q8N2S1-2 29-394, looked up)
chain: GERLRVRFTPVVCGLRCVHGPTGSRCTPTCAPRNATSVDSGAPGGAAPGGPGFRAFLCPLICHNGGVCVKPDRCLCPPDFAGKFCQLHSSGARPPAPAVPGLTRSVYTMPLANHRDDEHGVASMVSVHVEHPQEASVVVHQVERVSGPWEEADAEAVARAEAAARAEAAAPYTVLAQSAPREDGYSDASGFGYCFRELRGGECASPLPGLRTQEVCCRGAGLAWGVHDCQLCSERLGNSERVSAPDGPCPTGFERVNGSCEDVDECATGGRCQHGECANTRGGYTCVCPDGFLLDSSRSSCISQHVISEAKGPCFRVLRDGGCSLPILRNITKQICCCSRVGKAWGRGCQLCPPFGSEGFREICPA
notes: numbers count on: LTBP4S; N-glycosylated (PNGase-F shift); Biotinylated when immobilised on streptavidin biosensors in the fibronectin BLI experiment (general BLI methods); also called NWT; LTBP4 N-terminal region
As for B3, the Kd in the assay with Fibulin-4, full length (both partners purified) was 1290 nM.
